Measurements: patent publication US10858422B2, “Methods for treating systemic lupus erythematosus with an anti-apolipoprotein B antibody” (Abcentra, LLC, priority 2016, dated 2020)
“And” between values parts separate entries of the source, which are not always exact repeats. Equal values may be shown once. Read-outs that look alike come from different tables or passages of the source. Marks after values point to notes of the source that are not given here.

Columns and labels:
[1] = Phase I (FIH) dose-escalation trial, single and multiple doses: pharmacokinetics; design: species or system human; settings: in vivo
Experimental: Study population: 80 healthy subjects with elevated LDL cholesterol.
Orticumab was provided as a sterile liquid and contained no preservatives. Each single-use, 10 mL vial was designed to deliver 250 mg of MLDL1278A. The Drug Product was formulated as 25 mg/mL orticumab in 20 mM sodium acetate, 0.15 M sodium chloride, pH 5.5.
Route of Administration: intravenous injection (Subcutaneous injection was also examined).
The exact explanation for these unusual PK characteristics was unknown at that time. The mean terminal half-life was similar after both single and multiple administrations of orticumab and was generally in the range of 2-3 weeks and thus in agreement with other therapeutic monoclonal antibodies.

[2] = tested on: monocyte chemoattractant protein 1, MCP-1; experiment: In vitro inhibition of oxLDL-mediated cytokine release (MCP-1); format: cell-based
Experimental: The ability of orticumab to shut down macrophage pro-inflammatory activity locally in the plaque became the focus, as it was thought to be an important mechanism underlying its therapeutic activity. Initial hypothesis of using orticumab related to neutralizing oxLDL from the systemic compartment, which required 4 μg/mL=˜28 nM=11 mg of orticumab to neutralize 90% systemic oxLDL. Further in vitro assays provided an insight into the minimum effective concentration of orticumab needed to achieve 50% or 90% inhibition of oxLDL-mediated cytokine release (i.e., inhibition of monocyte chemoattractant protein 1, MCP-1): […]

[3] = tested on: SLE ApoE−/− mice; experiment: Passive immunization: plaque area and composition in aortic root, flat preps of aorta; format: in vivo, mouse
Experimental: (§1) SLE ApoE^−/− mice were treated with three weekly injections of either orticumab or an irrelevant antibody as control. Six-week old mice were fed with HFD, and were injected at weeks 18, 19 and 20 with orticumab (one dose of 1 mg per week, IP injections), and sacrificed for analysis in week 22. Plaque area and composition were determined in the aortic root.

[4] = in vivo
[5] = Second Phase I (Ph1): single-dose bioavailability after subcutaneous and intravenous administration; settings: for tmax: Median (min-max)
[6] = tested on: B6.lpr.ApoE−/− mice; experiment: Atherosclerosis: en face Oil Red O of aortic arch, subvalvular plaque area, Oil Red O and CD68; format: in vivo, mouse; settings: for reduction of subvalvular plaque area / development: three injections of the antibody
[7] = in vivo; remark: listed apart in the source
[8] = target: oxidized LDL (Homo sapiens, UniProt P04114); settings: cited from earlier work
Chain of oxidized LDL (P04114 28-4563): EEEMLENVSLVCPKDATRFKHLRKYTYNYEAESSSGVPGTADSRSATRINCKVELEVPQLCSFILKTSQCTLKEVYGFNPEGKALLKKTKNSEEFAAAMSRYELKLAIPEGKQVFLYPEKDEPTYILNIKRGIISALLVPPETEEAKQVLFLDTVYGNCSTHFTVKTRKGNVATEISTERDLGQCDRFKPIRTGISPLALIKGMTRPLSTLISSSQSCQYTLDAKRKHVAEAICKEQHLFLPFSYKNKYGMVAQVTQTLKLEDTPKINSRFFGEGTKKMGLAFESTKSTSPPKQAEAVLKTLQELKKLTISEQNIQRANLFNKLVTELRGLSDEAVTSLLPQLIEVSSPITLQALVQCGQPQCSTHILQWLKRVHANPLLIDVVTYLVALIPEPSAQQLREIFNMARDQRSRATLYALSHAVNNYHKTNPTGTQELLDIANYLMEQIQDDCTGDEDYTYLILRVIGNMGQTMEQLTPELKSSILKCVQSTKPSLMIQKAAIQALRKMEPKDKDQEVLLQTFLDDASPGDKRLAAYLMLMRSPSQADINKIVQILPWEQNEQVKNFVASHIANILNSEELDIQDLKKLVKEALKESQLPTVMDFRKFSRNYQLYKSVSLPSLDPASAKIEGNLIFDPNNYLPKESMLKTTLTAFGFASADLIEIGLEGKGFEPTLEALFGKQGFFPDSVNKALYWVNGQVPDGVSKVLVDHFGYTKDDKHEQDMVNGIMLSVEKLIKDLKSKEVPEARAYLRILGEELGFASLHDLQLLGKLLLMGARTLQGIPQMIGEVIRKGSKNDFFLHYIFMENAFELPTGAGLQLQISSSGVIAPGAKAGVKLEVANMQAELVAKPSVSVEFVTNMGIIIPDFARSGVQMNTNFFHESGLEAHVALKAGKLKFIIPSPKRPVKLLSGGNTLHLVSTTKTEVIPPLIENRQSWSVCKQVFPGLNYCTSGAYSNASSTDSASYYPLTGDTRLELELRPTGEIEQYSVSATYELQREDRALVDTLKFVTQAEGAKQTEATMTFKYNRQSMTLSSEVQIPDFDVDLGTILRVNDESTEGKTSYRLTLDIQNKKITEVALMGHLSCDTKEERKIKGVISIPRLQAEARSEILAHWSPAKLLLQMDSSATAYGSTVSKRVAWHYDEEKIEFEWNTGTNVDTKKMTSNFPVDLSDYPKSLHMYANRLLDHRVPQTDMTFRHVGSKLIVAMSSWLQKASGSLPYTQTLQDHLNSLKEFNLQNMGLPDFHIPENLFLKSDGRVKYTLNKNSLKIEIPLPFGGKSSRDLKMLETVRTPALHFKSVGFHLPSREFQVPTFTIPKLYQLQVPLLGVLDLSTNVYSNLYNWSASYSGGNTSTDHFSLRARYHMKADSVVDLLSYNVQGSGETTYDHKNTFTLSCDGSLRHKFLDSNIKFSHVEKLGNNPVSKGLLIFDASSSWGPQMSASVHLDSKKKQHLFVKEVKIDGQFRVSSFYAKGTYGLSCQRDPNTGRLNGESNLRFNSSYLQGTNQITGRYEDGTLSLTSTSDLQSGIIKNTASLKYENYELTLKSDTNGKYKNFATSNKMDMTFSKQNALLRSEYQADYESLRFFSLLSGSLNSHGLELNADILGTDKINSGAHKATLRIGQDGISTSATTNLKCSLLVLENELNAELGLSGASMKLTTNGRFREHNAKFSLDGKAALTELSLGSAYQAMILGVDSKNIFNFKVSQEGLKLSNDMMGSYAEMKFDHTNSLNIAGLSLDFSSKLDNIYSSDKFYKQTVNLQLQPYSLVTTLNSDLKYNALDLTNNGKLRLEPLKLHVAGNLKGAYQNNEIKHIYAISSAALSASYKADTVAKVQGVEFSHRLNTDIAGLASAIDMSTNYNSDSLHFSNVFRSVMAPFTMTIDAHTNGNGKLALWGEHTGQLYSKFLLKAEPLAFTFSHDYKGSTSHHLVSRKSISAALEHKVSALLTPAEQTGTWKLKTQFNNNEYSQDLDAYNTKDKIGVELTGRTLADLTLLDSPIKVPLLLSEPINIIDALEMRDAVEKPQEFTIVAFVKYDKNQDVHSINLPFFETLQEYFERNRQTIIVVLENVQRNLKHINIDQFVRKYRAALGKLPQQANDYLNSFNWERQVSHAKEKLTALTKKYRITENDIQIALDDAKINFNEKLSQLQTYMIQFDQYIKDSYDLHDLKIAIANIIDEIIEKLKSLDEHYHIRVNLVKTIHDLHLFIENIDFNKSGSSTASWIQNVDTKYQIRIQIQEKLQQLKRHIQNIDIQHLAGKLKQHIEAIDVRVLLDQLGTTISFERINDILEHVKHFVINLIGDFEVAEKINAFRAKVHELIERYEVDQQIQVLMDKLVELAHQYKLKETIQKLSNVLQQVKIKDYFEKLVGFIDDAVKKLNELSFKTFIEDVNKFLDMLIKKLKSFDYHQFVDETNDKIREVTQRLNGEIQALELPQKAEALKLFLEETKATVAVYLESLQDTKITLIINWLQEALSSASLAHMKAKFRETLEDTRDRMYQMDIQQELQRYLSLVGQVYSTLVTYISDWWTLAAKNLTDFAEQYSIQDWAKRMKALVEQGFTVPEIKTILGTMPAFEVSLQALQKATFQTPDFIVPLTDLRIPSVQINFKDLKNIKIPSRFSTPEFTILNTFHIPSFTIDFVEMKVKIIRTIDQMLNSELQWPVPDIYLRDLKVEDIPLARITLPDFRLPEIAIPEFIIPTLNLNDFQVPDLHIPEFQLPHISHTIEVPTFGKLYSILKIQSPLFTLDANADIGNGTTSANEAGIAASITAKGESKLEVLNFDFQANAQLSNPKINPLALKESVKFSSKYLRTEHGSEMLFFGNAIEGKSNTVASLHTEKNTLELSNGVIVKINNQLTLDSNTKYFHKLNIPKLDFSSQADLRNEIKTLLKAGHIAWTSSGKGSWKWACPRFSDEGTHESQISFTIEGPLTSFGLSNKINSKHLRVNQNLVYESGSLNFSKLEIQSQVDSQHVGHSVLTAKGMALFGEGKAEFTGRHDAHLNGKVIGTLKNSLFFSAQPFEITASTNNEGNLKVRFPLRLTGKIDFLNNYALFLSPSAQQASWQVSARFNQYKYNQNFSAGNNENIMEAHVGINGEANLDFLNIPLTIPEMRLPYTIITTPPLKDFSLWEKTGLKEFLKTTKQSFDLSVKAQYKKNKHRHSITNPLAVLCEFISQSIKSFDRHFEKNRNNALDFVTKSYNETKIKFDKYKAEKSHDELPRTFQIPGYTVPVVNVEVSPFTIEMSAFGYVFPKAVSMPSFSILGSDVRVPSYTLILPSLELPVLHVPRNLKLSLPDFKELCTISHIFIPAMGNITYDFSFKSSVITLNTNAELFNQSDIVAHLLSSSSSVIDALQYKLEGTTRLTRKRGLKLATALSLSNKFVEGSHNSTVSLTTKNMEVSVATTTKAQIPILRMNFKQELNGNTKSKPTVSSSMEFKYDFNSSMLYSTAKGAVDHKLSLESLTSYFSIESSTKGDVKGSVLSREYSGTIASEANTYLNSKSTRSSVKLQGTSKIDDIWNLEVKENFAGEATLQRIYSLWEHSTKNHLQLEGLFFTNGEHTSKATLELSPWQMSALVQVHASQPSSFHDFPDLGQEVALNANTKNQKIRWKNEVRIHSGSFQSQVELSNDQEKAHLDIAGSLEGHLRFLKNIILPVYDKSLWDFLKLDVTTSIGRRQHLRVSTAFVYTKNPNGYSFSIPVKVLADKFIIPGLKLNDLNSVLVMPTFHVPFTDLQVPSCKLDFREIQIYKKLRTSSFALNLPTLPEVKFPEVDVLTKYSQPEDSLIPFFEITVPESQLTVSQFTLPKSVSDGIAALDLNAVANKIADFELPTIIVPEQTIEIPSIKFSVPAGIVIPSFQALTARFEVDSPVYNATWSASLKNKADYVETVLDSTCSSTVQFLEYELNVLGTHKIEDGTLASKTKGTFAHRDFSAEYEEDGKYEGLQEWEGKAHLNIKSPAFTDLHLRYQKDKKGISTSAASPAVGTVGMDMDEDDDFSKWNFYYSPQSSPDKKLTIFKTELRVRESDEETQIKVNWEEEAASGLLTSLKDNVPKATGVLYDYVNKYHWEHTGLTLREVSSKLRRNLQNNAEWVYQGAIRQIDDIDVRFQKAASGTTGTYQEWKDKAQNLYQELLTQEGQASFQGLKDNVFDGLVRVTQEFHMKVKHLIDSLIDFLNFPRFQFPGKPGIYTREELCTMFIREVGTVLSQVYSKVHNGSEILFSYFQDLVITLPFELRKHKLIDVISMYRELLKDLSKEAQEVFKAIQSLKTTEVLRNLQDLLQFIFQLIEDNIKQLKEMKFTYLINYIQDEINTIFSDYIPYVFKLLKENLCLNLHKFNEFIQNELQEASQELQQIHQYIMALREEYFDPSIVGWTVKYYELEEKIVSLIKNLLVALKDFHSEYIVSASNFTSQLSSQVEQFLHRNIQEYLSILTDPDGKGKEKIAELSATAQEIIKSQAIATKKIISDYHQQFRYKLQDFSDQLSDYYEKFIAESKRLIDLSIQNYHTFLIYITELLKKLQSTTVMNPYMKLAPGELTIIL

[9] = tested on: SLE ApoE−/− mice; experiment: Passive immunization: spleen cells and plasma biomarkers; format: in vivo, mouse
Experimental: as §1

[10] = tested on: patients with atherosclerosis and evidence of carotid or aortic plaque inflammation; experiment: Phase IIa: inflammatory and metabolic biomarkers; format: in vivo, human
Experimental: Incidence and severity of adverse events and clinical laboratory abnormalities as a measure of safety and tolerability of orticumab. Effects of orticumab on inflammatory and metabolic biomarkers. Serum and EDTA plasma samples for soluble biomarker analysis were obtained at baseline and on Day 29 and Day 85. Biomarker assays were performed using the HumanMAP1.6 multiplex panel from Rules Based Medicine (RBM). IL-6 and TNFα immunoassays were performed at Pacific Biomarkers using Quantikine R&D High Sensitivity ELISA. IL-10, MPO and oxLDL immunoassays were performed at Pacific Biomarkers using immunoassay kits from MSA, Prognostix, and Mercodia, respectively. Presence of anti-therapeutic antibodies to orticumab.

[11] = oxLDL-mediated cytokine release
[12] = Intravenous (Cohort A, Period 1), single dose 360 mg, Mean (SD)
[13] = Subcutaneous (Cohort A, Period 2), single dose 360 mg, Mean (SD)
[14] = Subcutaneous (Cohort B), single dose 360 mg, Mean (SD)
[15] = male mice, 1 mg i.p. weekly for three weeks, vs control IgG

## orticumab: recombinant human IgG1 against MDA-modified peptide 45 of ApoB100; heavy chain SEQ ID NO: 316, light chain SEQ ID NO: 317
[1]; human
  mean terminal half-life: 2-3 weeks
[1]; human, iv, 1.25 mg/kg
  Cmax: 20600 ng/mL
[1]; human, iv, 5 mg/kg
  Cmax: 105000 ng/mL
[1]; human, sc, 1.25 mg/kg
  Cmax: 2990 ng/mL
[1]; 1.25 mg/kg
  Cmax, max exposure IV vs SC: 6.9 times
  ½-life: 20 days
[1]; iv, 1.25 mg/kg
  C ≥ 1 μg/mL: Day 28
  C ≥ 4 μg/mL: Day 3 (<Day 7)
  C ≥ 12 μg/mL: 11 h
[1]; iv, 5 mg/kg
  C ≥ 1 μg/mL: Day 56
  C ≥ 4 μg/mL: Day 14
  C ≥ 12 μg/mL: Day 3
[1]; iv, 15 mg/kg
  C ≥ 1 μg/mL: Day 70*
  C ≥ 4 μg/mL: Day 42
  C ≥ 12 μg/mL: Day 28
[1]; sc, 1.25 mg/kg
  C ≥ 1 μg/mL: Day 28
  C ≥ 4 μg/mL: Not achieved
  C ≥ 12 μg/mL: Not achieved
  Cmax of SC dose versus threshold: does not reach threshold of 4-12 μg/mL
[2]; expressed as amount
  IC50 for MCP-1 inhibition: ~4 mg
  IC90 for MCP-1 inhibition: 12.4 to 33 mg
[2]; [11]
  IC50 for MCP-1 inhibition: 1.5 µg/mL
  IC90: 30 to 80 nM
  IC90 for MCP-1 inhibition: 4.5 to 12 µg/mL
[3]; 1 mg IP weekly at weeks 18, 19, 20, vs control antibody
  plaque area in aortic root: significantly smaller plaques
[3]; 1 mg IP weekly x3
  apoptosis in plaque areas (number of TUNEL cells): increased apoptosis
  lipid staining, flat preps of the aorta: reduction, although not significant
[3]; 1 mg IP weekly x3, vs control antibody
  CD68+ area: reduced
[4]
  SAEs during the study: no SAEs
[4]; sc
  most frequently reported TEAEs: mild intensity local site reactions
[5]; [12]
  AUC(0-inf): 412 (87.3) μg * d/mL
  AUC(0-last): 380 (76.4) μg * d/mL
  CL: 0.906 (0.168) L/d
  Cmax: 84.3 (16.9) μg/mL
  MRT: 16.9 (3.02) d
  Vss: 15.2 (3.25) L
  Vz: 26.3 (5.34) L
[5]; Intravenous (Cohort A, Period 1), single dose 360 mg
  tmax: 0.04 (0.04-0.04) d
[5]; Ph1 trial, single dosing, 360 mg IV
  Cmax: 84.3 µg/mL
[5]; Ph1 trial, single dosing, 360 mg SC
  Cmax: 9.15 µg/mL
[5]; Ph1 trial, single dosing, 360 mg SC 70-90 days after IV dosing
  Cmax: 15.1 µg/mL
[5]; [13]
  AUC(0-last): 215 (60.0) μg * d/mL
  Cmax: 15.1 (4.50) μg/mL
[5]; Subcutaneous (Cohort A, Period 2), single dose 360 mg, Mean (SD), corrected by subtracting AUCresidual from Period 1
  AUC(0-inf): 236 (69.7) μg * d/mL
[5]; Subcutaneous (Cohort A, Period 2), single dose 360 mg
  tmax: 3.99 (1.96-6.91) d
[5]; [14]
  AUC(0-inf): 194 (45.6) μg * d/mL
  AUC(0-last): 178 (39.6) μg * d/mL
  Cmax: 9.15 (3.86) μg/mL
[5]; Subcutaneous (Cohort B), single dose 360 mg
  tmax: 3.91 (1.00-4.02) d
[5]; both routes of administration
  t½: about 20 days
[5]; in vivo
  increase of SC bioavailability by a prior IV dose: approximately 9%
[5]; single SC dose
  median tmax: 96 h
[5]; single SC dose 360 mg
  Cmax of SC dose versus threshold: falls within range of 4-12 μg/mL
[5]; single SC dose 360 mg, Cohort A, Period 2
  maximum mean serum concentration: 15.1 µg/mL
[5]; single SC dose 360 mg, Cohort B
  maximum mean serum concentration: 9.15 µg/mL
[5]; single SC dose of 360 mg
  absolute bioavailability based on AUC(0-inf): 47%
[5]; single SC dose of 360 mg after at least 70 days washout from an initial IV dose
  bioavailability: 56%
[5]; single dose 360 mg IV
  ½-life: 33.5 days
[5]; single dose 360 mg SC
  ½-life: 24.3 days and 24 days
[5]; single dose at 360 mg (4.34 mg/kg)
  Cmax, max exposure IV vs SC: 9.2 times
[6]; [15]
  lipid accumulation in subvalvular plaques: trend towards decreased
  reduction of CD68-macrophage subvalvular plaque staining: 30.5%
  reduction of atherosclerosis in the aortic arch: 42.8%
[6]
  reduction of subvalvular plaque area / development: 50%
[6]; listed as MDA-P45 specific antibody
  reduction of subvalvular plaque area / development: 50.3%
[7]
  C ≥ 1 μg/mL: Day 57
  C ≥ 4 μg/mL: Day 15
  C ≥ 12 μg/mL: Day 8
[7]; iv, 360 mg
  t1/2: 20.3 (2.91) d
[7]; sc
  C ≥ 1 μg/mL: Day 43
  C ≥ 4 μg/mL: Day 15
[8]
  binding specificity, oxidized vs native LDL: binds only to oxidized LDL and not to native LDL
[9]; end of experiment
  spleen monocytes or B cells: no differences
[9]; mouse, in vivo
  plasma levels of oxidized LDL and plasma cytokines: no differences
[10]; 4 weeks, multiple-dose group
  interleukin 6 level: nominal increase
  tumor necrosis factor alpha level: nominal increase
[10]; either group
  lipid parameters or high-sensitivity C-reactive protein level: No significant decreases
